assay: soluble on expression in E. coli; label from the status in PepcDB or PDB records

| Sequence | soluble on expression in E. coli |
| --- | --- |
| HMDIRPRLRIGQINLGGAEDATRELPSIARDLGLDIVLVQEQYSMVGFLAQCGAHPKAGVYIRNRVLPCAVLHHLSSTHITVVHIGGWDLYMVSAYFQYSDPIDPYLHRLGNILDRLRGARVVICADTNAHSPLWHSLPRHYVGRGQEVADRRAKMEDFIGARRLVVHNADGHLPTFSTANGESYVDVTLSTRGVRVSEWRVTNESSSDHRLIVFGVGGGTTGERDEDEEARSDLRPGEP | soluble |
| HMTDLKASSLRALKLMDLTTLNDDDTDEKVIALCHQAKTPVGNTAAICIYPRFIPIARKTLKEQGTPEIRIATVTNFPHGNDDIDIALAETRAAIAYGADEVDVVFPYRALMAGNEQVGFDLVKACKEACAAANVLLKVIIETGELKDEALIRKASEISIKAGADFIKTSTGKVAVNATPESARIMMEVIRDMGVEKTVGFKPAGGVRTAEDAQKYLAIADELFGADWADARHYRFGASSLLASLLKALGHGDGKSASSY | soluble |
| HSQITLRGNAINTVGELPAVGSPAPAFTLTGGDLGVISSDQFRGKSVLLNIFPSVDTPVSATSVRTFDERAAASGATVLCVSKDLPFAQKRFCGAEGTENVMPASAFRDSFGEDYGVTIADGPMAGLLARAIVVIGADGNVAYTELVPEIAQEPNYEAALAALGA | soluble |
| HTGTVDIVADKTLYQPGETAKMLITFPEPIDEALLTLERDRVEQQSLLSHPANWLTLQRLNDTQYEARVPVSNSFAPNITFSVLYTRNGQYSFQNAGIKVAVPQLDIRVKTDKTHYQPGELVNVELTSSLKGKPVSAQLTVGVVDEMIYALQPE | not soluble |
| HVYDEQIYRKSSEVLRMSSERIEDELKKIEDVSYEIITDEQIQRILSMQNRDDTYDQYQMKQELWDQLAGYASDEKYIDSIHVIDARGSEYSAGSSSSDLLQQEQEEVFKRAKAKSGRNLWMTLGGSDPVLISARQIRSYHQLSLNGLGMVLIQVNVKQMIRDVPKDWGDSVGDIMIADQGGNLVYTAHASAHVPEAAKETLKHPGYDLIKKNGKRYFISYLQSSYQNWSYYNVIPFDQMFAK | not soluble |
| IDGIFIMDAEGHYLDVNPAICSAIGYTRDEFLALDWGVLSRGVDSGWAAASLARIVGGEPLREERTVWTRNGDQLTVELSAHLLPD | not soluble |
| IGPVQYHIGGTITYTTNKLIDLGATSVLKSGFVGKQQGYPLNSYFGLRYVGKIQTQEELEKYKYYYLDGNGIGMQDNLRLGDHMFEDVNGDGKLDQNDYVYLGTDDPKLSYSINIGLEWKGFDLSAIFQGVGRRTVFRGGEGNETWRVPMSAIYLNTTTQSIGNTWNPENRNAYYPSYTSIGSINNYNYQCSSWSVENGAYLRLKNLTLGYTLPASWLAKTNAISKLRIYFTGADLWEHSKLRDGWDPEASRKTKDLGRYPFNRTFTVGVNATF | not soluble |
| IIPISNFFQMVDALAEVSSTRIRLQEEILAGSWESLNTGRADLLVCPSLDTLPQEVKAEKIGKMSMIWVAATEHYVHKRSGEFDDSAREKYRIIAIADTAREQPALSINIIQKQPRLTVTNFTAKVEALTAGLGIGTLPRQIALPLIEKGVLKQIEGTEEQPMDIILAWRRNTMGEAKSWCIQYLKKNWKLK | not soluble |
| IKDPQTGAPVPLRALINNVSGYVIKTEMYTEVKNAKGEWVFKSLGKPGSMHLRPIATPYPVKEWLQPKRYKAHLMGTTYVYDFPELFRQASSSQWKNFSADVKLTDDFFISNELIEDENGELTEVEREPGANAIGMVAFKITVKTPEYPRGRQFVVVANDITFKIGSFGPQEDEFFNKVTEYARKRGIPRIYLAANSGARIGMAEEIVPLFQVAWNDAANPDKGFQYLYLTSEGMETLKKFDKENSVLTERTVINGEERFVIKTIIGSEDGLGVECLRGSGLIAGATSRAYHDIFTITLVTCRSVGIGAYLVRLGQRAIQVEGQPIILTGAPAINKMLGREVYTSNLQLGGTQIMYNNGVSHLTAVDDLAGVEKIVEWMSYVPAKRNMPVPILETKDTWDRPVDFTPTNDETYDVRWMIEGRETESGFEYGLFDKGSFFETLSGWAKGVVVGRARLGGIPLGVIGVETRTVENLIPADPANPNSAETLIQEPGQVWHPNSAFKTAQAINDFNNGEQLPMMILANWRGFSGGQRDMFNEVLKYGSFIVDALVDYKQPIIIYIPPTGELRGGSWVVVDPTINADQMEMYADVNARAGVLEPQGMVGIKFRREKLLDTMNRLDDKYRELRSQLSNKSLAPEVHQQISKQLADRERELLPIYGQISLQFADLHDRSSRMVAKGVISKELEWTEARRFFFWRLRRRLNEEYLIKRLSHQVGEASRLEKIARIRSWYPASVDHEDDRQVATWIEENYKTLDDKLKGLKLESFAQDLAKKIRSDHDNAIDGLSEVIKMLSTDDKEKLLKTLK | soluble |
| ILLVHGSGYGGWCWDATIRALAAHGARARALDLPGRIFTPGLSLADHAAAILQEIRAPVTLVGHSAGGFSIAAAAEAAAPGLIERLIFLCAYAPRDGASVASMRRAQARQPLRPAIRLAPDRLSYSFDPDLAGEALFHDCPPEVRAAALARMGAEPVGPQEERIRLSARYHALPKHYIRCLEDRAIPPETQEAMTADWPAGSVSTLPAGHSPFLSCPEALAKRLISVAAN | not soluble |
| INAGTDLDNPKDLEVSDPTETTLSLRWRRPVAKFDRYRLTYVSPSGKKNEMEIPVDSTSFILRGLDAGTEYTISLVAEKGRHKSKPTTIKGSTVVGSPKGISFSDITENSATVSWTPPRSRVDSYRVSYVPITGGTPNVVTVDGSKTRTKLVKLVPGVDYNVNIISVKGFEESEPISGILKTALDS | soluble |
| IPFPLSAYTHGGEFVRQLDKRILILDGAMGTMIQRYKLGEADFRGERFAEHHKDLKGDNELLSLVRPDVIAEIHRQYLEAGADVIETNTFGATSIAQGDYDLPELAYEMNLESARLARAACDAYSTPEHPRFVAGALGPQPKTASISPDVNDPGARNVTFDELRAAYVEQLNGLLDGGIDIVLIETIFDTLNAKAAIFAVEEAFEARGVRLPVMISGTVTDASGRILSGQTVEAFWNSVRHARPVTIGLNCALGAALMRPYVAELSKICDTYVCVYPNAGLPNPMAETGFDETPADTSALLEEFAQAGLVNMAGGCCGTTPEHIRAIAGKVAALTPRAVPEVPVKTRLSGLEALNIDDETLFVNVGERTNVTGSKMF | not soluble |
| IPLKSIEVPFEGELLPGYAIISEDKAQDTLIVVGGGDTSREDLFYMLGYSGWEHDYNVLMVDLPGQGKNPNQGLHFEVDARAAISAILDWYQAPTEKIAIAGFSGGGYFTAQAVEKDKRIKAWIASTPIYDVAEVFRISFSTALKAPKTILKWGSKLVTSVNKVAEVNLNKYAWQFGQVDFITSVNEVLEQAQIVDYNKIDVPSLFLVGAGEDSELMRQSQVLYDNFKQRGIDVTLRKFSSESGADAHCQVNNFRLMHYQVFEWLNHIFKKKD | not soluble |
| IQHATASLIQTNTDQELLVVDVTPSFASLWLVPNINDFHQRHPNIRVKILTGDGAVKNIHGESDLHVRCLPLSTHYEYSQLLCEETLLLIGNTNLPKLSDNQAISHYPFIPQTTRPQLWEQFKQENDLECPITYHSVGFEHFYLACEAVRMEKGLALLPDFMAQFSILRGDIQHIGNLKLHSGYGYYVVIPNFRLTSRKVALFHDWLKDKLTHHT | soluble |
| IQQANEEAVTRIIQSKPILVGFDKAINVMPDMTETTILHAGPPITYENMCGPMKGAVQGALVFEGLAKDLADADRVARSGAITFSPCHEHDAVGSMAGVTSPNMYVHIIKNETYGNTAFTNLSEQLAKVLRFGANDQSVVDRLIWMRDVLGPLLHDAMTFCPEGIDLRLMLSQALHMGDECHNRNVAGSTLLVQALTPYMVQTDFSREQLKEVFEFLGSSDYFSGPTWMGAAKCALDAGHNVENSTIVTTMCRNGVEFGIRVSGIGGNHWFTGPAQRVIGPMFAGYTQEDAGLDMGDSAITETYGVGGFAMAAAPAIVPLVGGTVAEALNYSKEMLEITTKENPNVTIPVLDFMGIPTGIDVLKVLETGMLPVINTAIAHKEPGIGMIGAGLTNPPANVFNEALKALVATIN | not soluble |
| IQRQMFPNIEVNYIDVRATYPGASPQEIEESILVKVEESIKDVTGIKKVVSRASRGSAYISIEVDVNADIKRVLDDVNQRIDTISNLPLGMEPINVYQVEWRQDVIEMGLVGDRPLEELKPIAKQIEDELLQLNNVMLVYLSAPEEEIAIEVDPLVLRKYDLTLNDVSNAIRRYSANFSAGEVKTNSGMIAVRIENQYYRGDEFRNIPVKLGANGAKVLLQDIATIKDGFTEEERYFEYSGQNAIYMSVEATRDQNIIPVAQSVRDYIEAKNKTLPSDVQLKILVDMTYYLNGRLDMMLK | not soluble |
